Our source for the IC50 and Km values is article PMC2173631 (The Journal of Cell Biology, 2003).

The target in one data set is T1, DAGLβ (Mus musculus, UniProt Q91WC9).
T1 sequence (Q91WC9 1-669): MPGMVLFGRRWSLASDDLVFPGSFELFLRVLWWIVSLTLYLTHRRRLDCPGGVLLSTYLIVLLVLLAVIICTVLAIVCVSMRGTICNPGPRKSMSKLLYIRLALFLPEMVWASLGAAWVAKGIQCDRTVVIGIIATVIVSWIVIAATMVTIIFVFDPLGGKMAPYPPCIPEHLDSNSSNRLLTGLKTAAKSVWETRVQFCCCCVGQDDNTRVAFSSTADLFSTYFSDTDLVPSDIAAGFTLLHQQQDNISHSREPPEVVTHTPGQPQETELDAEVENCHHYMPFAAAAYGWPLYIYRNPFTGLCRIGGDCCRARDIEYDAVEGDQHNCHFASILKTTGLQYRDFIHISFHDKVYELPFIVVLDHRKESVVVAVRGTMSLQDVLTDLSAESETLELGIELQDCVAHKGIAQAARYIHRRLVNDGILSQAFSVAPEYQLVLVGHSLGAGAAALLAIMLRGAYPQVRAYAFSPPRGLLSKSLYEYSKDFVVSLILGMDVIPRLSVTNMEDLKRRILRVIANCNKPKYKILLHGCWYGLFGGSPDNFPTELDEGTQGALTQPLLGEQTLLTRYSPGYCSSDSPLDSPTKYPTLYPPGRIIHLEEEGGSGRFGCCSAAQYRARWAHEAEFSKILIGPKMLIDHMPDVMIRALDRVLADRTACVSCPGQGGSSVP
The data set can be described thus: radiolabeled DAG hydrolysis assay, homogenates of transfected COS cells. Type of data set: biochemical.

Substrate in data set [1]: CCCCC/C=C\C/C=C\C/C=C\C/C=C\CCCC(=O)O[C@@H](CO)COC(=O)CCCCCCCCCCCCCCCCC
The data set can be described thus: cells, lysate or membranes.

For `CCCCCCCCCCC[C@@H](C[C@@H]1OC(=O)[C@H]1CCCCCC)OC(=O)[C@H](CC(C)C)NC=O` [THL, tetrahydrolipstatin], the IC50 at DAGLβ turned out to be 100 nM.

B1: DAGLβ (Mus musculus) (protein)
chain: MPGMVLFGRRWSLASDDLVFPGSFELFLRVLWWIVSLTLYLTHRRRLDCPGGVLLSTYLIVLLVLLAVIICTVLAIVCVSMRGTICNPGPRKSMSKLLYIRLALFLPEMVWASLGAAWVAKGIQCDRTVVIGIIATVIVSWIVIAATMVTIIFVFDPLGGKMAPYPPCIPEHLDSNSSNRLLTGLKTAAKSVWETRVQFCCCCVGQDDNTRVAFSSTADLFSTYFSDTDLVPSDIAAGFTLLHQQQDNISHSREPPEVVTHTPGQPQETELDAEVENCHHYMPFAAAAYGWPLYIYRNPFTGLCRIGGDCCRARDIEYDAVEGDQHNCHFASILKTTGLQYRDFIHISFHDKVYELPFIVVLDHRKESVVVAVRGTMSLQDVLTDLSAESETLELGIELQDCVAHKGIAQAARYIHRRLVNDGILSQAFSVAPEYQLVLVGHSLGAGAAALLAIMLRGAYPQVRAYAFSPPRGLLSKSLYEYSKDFVVSLILGMDVIPRLSVTNMEDLKRRILRVIANCNKPKYKILLHGCWYGLFGGSPDNFPTELDEGTQGALTQPLLGEQTLLTRYSPGYCSSDSPLDSPTKYPTLYPPGRIIHLEEEGGSGRFGCCSAAQYRARWAHEAEFSKILIGPKMLIDHMPDVMIRALDRVLADRTACVSCPGQGGSSVP
Turning to B1, the Km in data set [1] was determined as 74.1 ± 4.9 µM.

B2: DAGLα (Homo sapiens) (protein)
chain: MPGIVVFRRRWSVGSDDLVLPAIFLFLLHTTWFVILSVVLFGLVYNPHEACSLNLVDHGRGYLGILLSCMIAEMAIIWLSMRGGILYTEPRDSMQYVLYVRLAILVIEFIYAIVGIVWLTQYYTSCNDLTAKNVTLGMVVCNWVVILSVCITVLCVFDPTGRTFVKLRATKRRQRNLRTYNLRHRLEEGQATSWSRRLKVFLCCTRTKDSQSDAYSEIAYLFAEFFRDLDIVPSDIIAGLVLLRQRQRAKRNAVLDEANNDILAFLSGMPVTRNTKYLDLKNSQEMLRYKEVCYYMLFALAAYGWPMYLMRKPACGLCQLARSCSCCLCPARPRFAPGVTIEEDNCCGCNAIAIRRHFLDENMTAVDIVYTSCHDAVYETPFYVAVDHDKKKVVISIRGTLSPKDALTDLTGDAERLPVEGHHGTWLGHKGMVLSAEYIKKKLEQEMVLSQAFGRDLGRGTKHYGLIVVGHSLGAGTAAILSFLLRPQYPTLKCFAYSPPGGLLSEDAMEYSKEFVTAVVLGKDLVPRIGLSQLEGFRRQLLDVLQRSTKPKWRIIVGATKCIPKSELPEEVEVTTLASTRLWTHPSDLTIALSASTPLYPPGRIIHVVHNHPAEQCCCCEQEEPTYFAIWGDNKAFNEVIISPAMLHEHLPYVVMEGLNKVLENYNKGKTALLSAAKVMVSPTEVDLTPELIFQQQPLPTGPPMPTGLALELPTADHRNSSVRSKSQSEMSLEGFSEGRLLSPVVAAAARQDPVELLLLSTQERLAAELQARRAPLATMESLSDTESLYSFDSRRSSGFRSIRGSPSLHAVLERDEGHLFYIDPAIPEENPSLSSRTELLAADSLSKHSQDTQPLEAALGSGGVTPERPPSAAANDEEEEVGGGGGGPASRGELALHNGRLGDSPSPQVLEFAEFIDSLFNLDSKSSSFQDLYCMVVPESPTSDYAEGPKSPSQQEILLRAQFEPNLVPKPPRLFAGSADPSSGISLSPSFPLSSSGELMDLTPTGLSSQECLAADKIRTSTPTGHGASPAKQDELVISAR
B2: the Km in data set [1] worked out at 154.7 ± 19.1 µM.

One may read the IC50 as the concentration that gives 50% inhibition. The low end stands for greater potency, the high end for weaker potency. The term Km denotes the substrate concentration at which the rate is half of its maximum.
